# Measurements: the supplement of paper PMC10567573
# B1: TRIM14 (parent)
# chain: REQADSCREQLDIMNDLSNRVWSI
# B2: KCNA4 (parent)
# chain: YQSGGRLKRPVNVPFDIFTEEVKF
# Variants of: B1
# Assay: protein stability index of a GFP-peptide fusion (GPS, HEK-293T) (PSI 1-6); higher = more stable
# Conditions: c terminus: a fixed tail appended
# 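Further: lentivirally expressed fusions sorted by FACS into six bins by GFP to DsRed ratio, PSI derived from sequencing read proportions per bin multiplied by bin number.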
row,Variant,protein stability index
1,AEQADSCREQLDIMNDLSNRVWSI [R1A],2.81
2,DEQADSCREQLDIMNDLSNRVWSI [R1D],2.64
3,FEQADSCREQLDIMNDLSNRVWSI [R1F],1.88
4,EEQADSCREQLDIMNDLSNRVWSI [R1E],3.17
5,IEQADSCREQLDIMNDLSNRVWSI [R1I],2.63
6,GEQADSCREQLDIMNDLSNRVWSI [R1G],1.86
7,HEQADSCREQLDIMNDLSNRVWSI [R1H],2.29
8,CEQADSCREQLDIMNDLSNRVWSI [R1C],2.15

# Variants of: B2
# Assay: as above
# Conditions: c terminus: a fixed tail appended
row,Variant,protein stability index
1,YQSGGRLKRPQNVPFDIFTEEVKF [V11Q],2.36
2,YQSGGRLKRPLNVPFDIFTEEVKF [V11L],1.95
3,YQSGGRLKRPFNVPFDIFTEEVKF [V11F],3.13
4,YQSGGRLKRPKNVPFDIFTEEVKF [V11K],1.39
5,YQSGGRLKRPYNVPFDIFTEEVKF [V11Y],2.06
6,YQSGHRLKRPVNVPFDIFTEEVKF [G5H],3.03
7,YQSGMRLKRPVNVPFDIFTEEVKF [G5M],1.77
8,YQSGLRLKRPVNVPFDIFTEEVKF [G5L],1.49
9,YQSGIRLKRPVNVPFDIFTEEVKF [G5I],1.72
10,YQSGPRLKRPVNVPFDIFTEEVKF [G5P],2.53
11,YQSGYRLKRPVNVPFDIFTEEVKF [G5Y],1.26
12,YQSGRRLKRPVNVPFDIFTEEVKF [G5R],1.8
13,YQSGFRLKRPVNVPFDIFTEEVKF [G5F],1.6
14,YQSGGRLKRPVNVPFDIFTEECKF [V22C],1.54
15,YQSGGRLKRPVNVPFDIFTEENKF [V22N],1.83
16,YQSGGRLKRPVNVPFDIFTEEEKF [V22E],2.77
17,YQSGGRLKRPVNVPFDIFTEEQKF [V22Q],2.08
18,YQSGGRLKRPVNVPFDIFTEEPKF [V22P],1.54
19,YQSGGRLKRPVNVPFDIFTEEFKF [V22F],2.06
20,YQSGGRLKRPVNVPFDIFTEEGKF [V22G],2.34
21,YQSGGRLKRPVNVPFDIFTEEIKF [V22I],1.38
22,YQSGGRLKRPVNVPFDIFTEELKF [V22L],1.99

row,Variant,protein stability index
1,YQSPGRLKRPVNVPFDIFTEEVKF [G4P],3.26
2,YQSYGRLKRPVNVPFDIFTEEVKF [G4Y],1.27
3,YQSRGRLKRPVNVPFDIFTEEVKF [G4R],2.14
4,YQSVGRLKRPVNVPFDIFTEEVKF [G4V],1.78
5,YQSTGRLKRPVNVPFDIFTEEVKF [G4T],2.2
6,YQSSGRLKRPVNVPFDIFTEEVKF [G4S],1.99
7,YQSEGRLKRPVNVPFDIFTEEVKF [G4E],1.99
8,YQSDGRLKRPVNVPFDIFTEEVKF [G4D],1.96
9,YQSFGRLKRPVNVPFDIFTEEVKF [G4F],1.71
10,YQSGGRLKRPVNVPFDIFTKEVKF [E20K],1.7
11,YQSGGRLKRPVNVPFDIFTHEVKF [E20H],1.43
12,YQSGGRLKRPVNVPFDIFTREVKF [E20R],1.31
13,YQSGGRLKRPVNVPFDIFTNEVKF [E20N],2.12
14,YQSGGRLKIPVNVPFDIFTEEVKF [R9I],1.65
15,YQSGGRLKCPVNVPFDIFTEEVKF [R9C],1.63
16,YQSGGRLKDPVNVPFDIFTEEVKF [R9D],1.99
17,YQSGGRLKVPVNVPFDIFTEEVKF [R9V],1.69
18,YQSGGRLKWPVNVPFDIFTEEVKF [R9W],3.37
19,YQSGGRLKPPVNVPFDIFTEEVKF [R9P],1.72
20,YQSGGRLKFPVNVPFDIFTEEVKF [R9F],1.58
21,YQSGGRLKSPVNVPFDIFTEEVKF [R9S],2.1
22,YQSGGRLKHPVNVPFDIFTEEVKF [R9H],2.02

row,Variant,protein stability index
1,YQSGGRLKRPVNVPFDIFTEEVNF [K23N],2.3
2,YQSGGRLKRPVNVPFDIFTEEVRF [K23R],1.96
3,YQSGGRLKRPVNVPFDIFTEEVQF [K23Q],2.06
4,YQSGGRLKRPVNVPFDIFTEEVTF [K23T],2.36
5,YQSGGRLKRPVNVPFDIFTEEVDF [K23D],1.82
6,YQSGGRLKRPVNVPFDIFTEEVEF [K23E],1.05
7,YQSGGRLKRPVNVPFDIFTEEVLF [K23L],2.53
8,YQFGGRLKRPVNVPFDIFTEEVKF [S3F],1.51
9,YQHGGRLKRPVNVPFDIFTEEVKF [S3H],2.5
10,YQPGGRLKRPVNVPFDIFTEEVKF [S3P],1.7
11,YQKGGRLKRPVNVPFDIFTEEVKF [S3K],2.27
12,YQDGGRLKRPVNVPFDIFTEEVKF [S3D],3.3
13,YQLGGRLKRPVNVPFDIFTEEVKF [S3L],2.13
14,YQYGGRLKRPVNVPFDIFTEEVKF [S3Y],1.59
15,YQRGGRLKRPVNVPFDIFTEEVKF [S3R],1.37
16,YSSGGRLKRPVNVPFDIFTEEVKF [Q2S],2.58
17,YCSGGRLKRPVNVPFDIFTEEVKF [Q2C],2.63
18,YVSGGRLKRPVNVPFDIFTEEVKF [Q2V],3.32
19,YISGGRLKRPVNVPFDIFTEEVKF [Q2I],1.93
20,YKSGGRLKRPVNVPFDIFTEEVKF [Q2K],2.14
21,YTSGGRLKRPVNVPFDIFTEEVKF [Q2T],1.62
22,YNSGGRLKRPVNVPFDIFTEEVKF [Q2N],2.12

row,Variant,protein stability index
1,YPSGGRLKRPVNVPFDIFTEEVKF [Q2P],2
2,YMSGGRLKRPVNVPFDIFTEEVKF [Q2M],2.56
3,YGSGGRLKRPVNVPFDIFTEEVKF [Q2G],1.77
4,YQSGGSLKRPVNVPFDIFTEEVKF [R6S],1.45
5,YQSGGQLKRPVNVPFDIFTEEVKF [R6Q],2.15
6,YQSGGMLKRPVNVPFDIFTEEVKF [R6M],1.47
7,YQSGGLLKRPVNVPFDIFTEEVKF [R6L],1.51
8,YQSGGKLKRPVNVPFDIFTEEVKF [R6K],1.94
9,YQSGGILKRPVNVPFDIFTEEVKF [R6I],1.63
10,YQSGGVLKRPVNVPFDIFTEEVKF [R6V],1.77
11,YQSGGRLKRPVNVPFDIFTEKVKF [E21K],1.17
12,YQSGGRLKRPVNVPFDIFTEIVKF [E21I],2.24
13,YQSGGRLKRPVNVPFDIFTEVVKF [E21V],1.81
14,YQSGGRLKRPVNVPFDIFTEHVKF [E21H],1.77
15,YQSGGRLKRPVNVPFDIFTEGVKF [E21G],2.36
16,YQSGGRLKRPVNVPFDIFTEDVKF [E21D],2.37
17,YQSGGRLKRPVNVPFDIFTENVKF [E21N],2.63
18,YQSGGRLKRPVNFPFDIFTEEVKF [V13F],1.52
19,YQSGGRLKRPVNHPFDIFTEEVKF [V13H],1.91
20,YQSGGRLKRPVNKPFDIFTEEVKF [V13K],2
